The source of these data is patent US20240343771A1 (Chugai, published 2024).

Residue numbers refer to the chain shown, from its start. Names may count otherwise.

B1: Anti-IL-12 antibody Ab1 (Ab101H-12aa-C8/Ab102L-SK1) (antibody)
heavy: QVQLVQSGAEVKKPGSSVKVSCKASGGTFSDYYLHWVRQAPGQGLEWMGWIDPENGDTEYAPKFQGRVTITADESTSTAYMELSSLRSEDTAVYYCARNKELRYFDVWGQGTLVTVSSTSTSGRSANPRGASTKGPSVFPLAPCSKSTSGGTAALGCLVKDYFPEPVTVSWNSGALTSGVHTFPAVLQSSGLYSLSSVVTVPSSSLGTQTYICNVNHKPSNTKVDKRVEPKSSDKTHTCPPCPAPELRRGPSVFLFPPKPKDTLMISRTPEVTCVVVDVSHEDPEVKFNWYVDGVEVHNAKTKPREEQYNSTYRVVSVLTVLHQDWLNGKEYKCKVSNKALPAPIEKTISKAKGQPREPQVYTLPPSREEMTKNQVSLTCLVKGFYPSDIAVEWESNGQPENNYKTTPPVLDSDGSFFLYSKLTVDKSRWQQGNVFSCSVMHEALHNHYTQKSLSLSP
light: DIVMTQSPLSLPVTPGEPASISCRASQSISINLHWYQQKPGQAPRLLIYFASQSISGVPSRFSGSGSGTDFTLTISSLQPEDFATYYCQQSNSFPLTFGQGTKVEIKRTVAAPSVFIFPPSDEQLKSGTASVVCLLNNFYPREAKVQWKVDNALQSGNSQESVTEQDSKDSTYSLSSTLTLSKADYEKHKVYACEVTHQGLSSPVTKSFNRGEC
notes: Homodimer of light chain and heavy chain; also called -/- (control)
B2: Anti-IL-12 antibody Ab1 variant -/P44A VL (antibody, V domains shown)
VH: QVQLVQSGAEVKKPGSSVKVSCKASGGTFSDYYLHWVRQAPGQGLEWMGWIDPENGDTEYAPKFQGRVTITADESTSTAYMELSSLRSEDTAVYYCARNKELRYFDVWGQGTLVTVSS
VL: DIVMTQSPLSLPVTPGEPASISCRASQSISINLHWYQQKPGQAARLLIYFASQSISGVPSRFSGSGSGTDFTLTISSLQPEDFATYYCQQSNSFPLTFGQGTKVEIKR
notes: Ab1 with VH/VL interface substitutions; Kabat numbering
B3: Anti-IL-12 antibody Ab1 variant F100aI VH/A43Q, Y49A VL (antibody, name in Kabat numbering, V domains shown)
VH: B2 VH with F105I
VL: B2 VL with A43Q, A44P, Y49A
notes: as for B2
B4: Anti-IL-12 antibody Ab1 variant L45Q VH/Y49A, Y87L VL (antibody, name in Kabat numbering, V domains shown)
VH: B2 VH with L45Q
VL: B2 VL with A44P, Y49A, Y87L
notes: as for B2
B5: Anti-IL-12 antibody Ab1 variant -/F98A VL (antibody)
heavy: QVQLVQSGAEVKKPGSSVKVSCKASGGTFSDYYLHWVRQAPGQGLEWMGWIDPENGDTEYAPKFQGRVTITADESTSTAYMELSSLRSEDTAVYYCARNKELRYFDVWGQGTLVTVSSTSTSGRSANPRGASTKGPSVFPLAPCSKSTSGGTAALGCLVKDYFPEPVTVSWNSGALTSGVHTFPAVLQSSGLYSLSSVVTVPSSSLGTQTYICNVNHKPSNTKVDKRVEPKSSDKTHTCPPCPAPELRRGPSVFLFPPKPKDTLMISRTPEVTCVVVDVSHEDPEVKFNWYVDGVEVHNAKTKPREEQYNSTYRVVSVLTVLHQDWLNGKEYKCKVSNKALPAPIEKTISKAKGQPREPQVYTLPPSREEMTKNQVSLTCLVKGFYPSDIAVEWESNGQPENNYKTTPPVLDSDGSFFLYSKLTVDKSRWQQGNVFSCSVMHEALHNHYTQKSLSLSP
light: B1 light with F98A
notes: as for B2
B6: Anti-IL-12 antibody Ab1 variant -/F98L VL (antibody)
heavy: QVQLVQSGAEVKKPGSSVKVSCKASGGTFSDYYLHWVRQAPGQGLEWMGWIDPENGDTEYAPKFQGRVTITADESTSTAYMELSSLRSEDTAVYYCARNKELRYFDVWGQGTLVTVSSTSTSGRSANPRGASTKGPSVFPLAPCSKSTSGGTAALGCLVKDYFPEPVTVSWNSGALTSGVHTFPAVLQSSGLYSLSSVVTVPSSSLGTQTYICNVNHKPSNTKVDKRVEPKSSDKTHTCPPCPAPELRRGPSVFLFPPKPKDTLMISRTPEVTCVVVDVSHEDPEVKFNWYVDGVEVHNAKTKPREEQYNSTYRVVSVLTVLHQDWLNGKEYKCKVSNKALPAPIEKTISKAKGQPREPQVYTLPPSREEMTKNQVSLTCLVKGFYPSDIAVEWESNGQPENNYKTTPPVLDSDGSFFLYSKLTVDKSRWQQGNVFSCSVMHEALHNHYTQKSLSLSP
light: B1 light with F98L
notes: as for B2
B7: Anti-IL-12 antibody Ab1 variant L45Q VH/P44A, Y49A VL (antibody, name in Kabat numbering, V domains shown)
VH: B2 VH with L45Q
VL: B2 VL with Y49A
notes: as for B2
B8: Anti-IL-12 antibody Ab1 variant F100aI VH/A43Q, L46Q, Y49A VL (antibody, name in Kabat numbering, V domains shown)
VH: B2 VH with F105I
VL: B2 VL with A43Q, A44P, L46Q, Y49A
notes: as for B2
B9: Anti-IL-12 antibody Ab1 variant -/L46Q VL (antibody, V domains shown)
VH: B2 VH
VL: B2 VL with A44P, L46Q
notes: as for B2
B10: Anti-IL-12 antibody Ab1 variant -/A43Q VL (antibody, V domains shown)
VH: B2 VH
VL: B2 VL with A43Q, A44P
notes: as for B2
B11: Anti-IL-12 antibody Ab1 variant V37S VH/- (antibody, name in Kabat numbering, V domains shown)
VH: B2 VH with V37S
VL: B2 VL with A44P
notes: as for B2
B12: Anti-IL-12 antibody Ab1 variant L45A VH/- (antibody, name in Kabat numbering, V domains shown)
VH: B2 VH with L45A
VL: B2 VL with A44P
notes: as for B2
B13: Anti-IL-12 antibody Ab1 variant L45Q VH/Y49A, F98M VL (antibody, name in Kabat numbering, V domains shown)
VH: B2 VH with L45Q
VL: B2 VL with A44P, Y49A, F98M
notes: as for B2
B14: Anti-IL-12 antibody Ab1 variant -/Y49A VL (antibody, V domains shown)
VH: B2 VH
VL: B2 VL with A44P, Y49A
notes: as for B2
B15: Anti-IL-12 antibody Ab1 variant V37S VH/L46Q, Y49A VL (antibody, name in Kabat numbering, V domains shown)
VH: B2 VH with V37S
VL: B2 VL with A44P, L46Q, Y49A
notes: as for B2
B16: Anti-IL-12 antibody Ab1 variant V37S VH/L46Q, Y49A, Y87M VL (antibody, name in Kabat numbering, V domains shown)
VH: B2 VH with V37S
VL: B2 VL with A44P, L46Q, Y49A, Y87M
notes: as for B2
B17: Anti-IL-12 antibody Ab1 variant -/F98M VL (antibody)
heavy: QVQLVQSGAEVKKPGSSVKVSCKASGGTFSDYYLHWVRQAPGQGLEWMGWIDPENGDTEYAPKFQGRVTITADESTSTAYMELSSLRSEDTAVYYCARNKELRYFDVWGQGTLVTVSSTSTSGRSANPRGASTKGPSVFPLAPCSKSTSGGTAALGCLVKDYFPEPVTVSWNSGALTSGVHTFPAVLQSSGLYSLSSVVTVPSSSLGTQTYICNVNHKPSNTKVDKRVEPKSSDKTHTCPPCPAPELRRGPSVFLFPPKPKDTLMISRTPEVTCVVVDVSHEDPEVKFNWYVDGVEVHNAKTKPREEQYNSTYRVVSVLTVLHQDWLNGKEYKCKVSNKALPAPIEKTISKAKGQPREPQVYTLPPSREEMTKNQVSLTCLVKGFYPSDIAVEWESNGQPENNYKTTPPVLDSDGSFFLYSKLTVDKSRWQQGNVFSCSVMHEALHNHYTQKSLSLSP
light: B1 light with F98M
notes: as for B2
B18: Anti-IL-12 antibody Ab1 variant F100aI VH/Y49A, Y87L VL (antibody, name in Kabat numbering, V domains shown)
VH: B2 VH with F105I
VL: B2 VL with A44P, Y49A, Y87L
notes: as for B2
B19: Anti-IL-12 antibody Ab1 variant -/P44S VL (antibody, V domains shown)
VH: B2 VH
VL: B2 VL with A44S
notes: as for B2
B20: Anti-IL-12 antibody Ab1 variant F100aI VH/- (antibody, name in Kabat numbering, V domains shown)
VH: B2 VH with F105I
VL: B2 VL with A44P
notes: Ab1 with a CDR substitution at the VH/VL interface; Kabat numbering
B21: Anti-IL-12 antibody Ab1 variant G44Q VH/- (antibody, name in Kabat numbering, V domains shown)
VH: B2 VH with G44Q
VL: B2 VL with A44P
notes: as for B2
B22: Anti-IL-12 antibody Ab1 variant L45Q VH/- (antibody, name in Kabat numbering, V domains shown)
VH: B2 VH with L45Q
VL: B2 VL with A44P
notes: as for B2
B23: Anti-IL-12 antibody Ab1 variant F100aI VH/L46Q, Y49A VL (antibody, name in Kabat numbering, V domains shown)
VH: B2 VH with F105I
VL: B2 VL with A44P, L46Q, Y49A
notes: as for B2
B24: Anti-IL-12 antibody Ab1 variant L45Q VH/A43Q, Y49A VL (antibody, name in Kabat numbering, V domains shown)
VH: B2 VH with L45Q
VL: B2 VL with A43Q, A44P, Y49A
notes: as for B2
B25: Anti-IL-12 antibody Ab1 variant F100aI VH/Y49A, F98L VL (antibody, name in Kabat numbering, V domains shown)
VH: B2 VH with F105I
VL: B2 VL with A44P, Y49A, F98L
notes: as for B2
B26: Anti-IL-12 antibody Ab1 variant -/Y87L VL (antibody, V domains shown)
VH: B2 VH
VL: B2 VL with A44P, Y87L
notes: as for B2
B27: Anti-IL-12 antibody Ab1 variant -/Y87A VL (antibody, V domains shown)
VH: B2 VH
VL: B2 VL with A44P, Y87A
notes: as for B2
B28: Anti-IL-12 antibody Ab1 variant L45Q VH/L46Q, Y49A VL (antibody, name in Kabat numbering, V domains shown)
VH: B2 VH with L45Q
VL: B2 VL with A44P, L46Q, Y49A
notes: as for B2
B29: Anti-IL-12 antibody Ab1 variant V37S VH/A43Q, Y49A VL (antibody, name in Kabat numbering)
heavy: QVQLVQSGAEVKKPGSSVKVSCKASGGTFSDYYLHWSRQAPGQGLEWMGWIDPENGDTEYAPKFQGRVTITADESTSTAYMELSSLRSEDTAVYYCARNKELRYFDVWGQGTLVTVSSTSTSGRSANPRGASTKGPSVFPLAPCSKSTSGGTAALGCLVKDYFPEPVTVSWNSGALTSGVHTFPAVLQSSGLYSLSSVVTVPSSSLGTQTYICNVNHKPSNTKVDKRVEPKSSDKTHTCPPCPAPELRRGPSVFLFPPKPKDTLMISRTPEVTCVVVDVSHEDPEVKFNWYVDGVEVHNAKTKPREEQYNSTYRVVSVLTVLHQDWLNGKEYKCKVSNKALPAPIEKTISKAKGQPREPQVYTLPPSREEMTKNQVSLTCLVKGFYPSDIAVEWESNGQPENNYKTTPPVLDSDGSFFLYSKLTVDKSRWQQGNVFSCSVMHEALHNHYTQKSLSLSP
light: B1 light with A43Q, Y49A
notes: as for B2
B30: Anti-IL-12 antibody Ab1 variant V37Q VH/- (antibody, name in Kabat numbering, V domains shown)
VH: B2 VH with V37Q
VL: B2 VL with A44P
notes: as for B2
B31: Anti-IL-12 antibody Ab1 variant F100aI VH/L46Q, Y49A, Y87M VL (antibody, name in Kabat numbering, V domains shown)
VH: B2 VH with F105I
VL: B2 VL with A44P, L46Q, Y49A, Y87M
notes: as for B2
B32: Anti-IL-12 antibody Ab1 variant -/Y87M VL (antibody, V domains shown)
VH: B2 VH
VL: B2 VL with A44P, Y87M
notes: as for B2
B33: Anti-IL-12 antibody Ab1 variant -/P44Q VL (antibody, V domains shown)
VH: B2 VH
VL: B2 VL with A44Q
notes: as for B2
B34: Anti-IL-12 antibody Ab1 variant F100aI VH/P44A, Y49A VL (antibody, name in Kabat numbering, V domains shown)
VH: B2 VH with F105I
VL: B2 VL with Y49A
notes: as for B2

In this test the target is T1, human IL-12 (human, UniProt P29460 23-328; P29459 23-219).
T1 construct: also called Interleukin-12
T1 sequence 1: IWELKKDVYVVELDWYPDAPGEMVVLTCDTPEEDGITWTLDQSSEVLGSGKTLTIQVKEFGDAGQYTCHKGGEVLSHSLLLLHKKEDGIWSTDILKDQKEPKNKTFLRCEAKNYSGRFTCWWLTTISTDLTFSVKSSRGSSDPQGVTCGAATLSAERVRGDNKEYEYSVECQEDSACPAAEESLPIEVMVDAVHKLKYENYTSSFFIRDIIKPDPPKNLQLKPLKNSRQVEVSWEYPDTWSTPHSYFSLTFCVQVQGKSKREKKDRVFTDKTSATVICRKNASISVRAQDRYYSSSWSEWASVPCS
T1 sequence 2: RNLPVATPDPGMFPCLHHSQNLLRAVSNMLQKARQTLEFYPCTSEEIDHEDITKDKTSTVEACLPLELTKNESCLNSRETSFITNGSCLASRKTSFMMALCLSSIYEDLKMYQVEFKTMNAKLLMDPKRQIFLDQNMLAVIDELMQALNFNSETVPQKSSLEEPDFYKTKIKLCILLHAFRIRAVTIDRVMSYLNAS
Kind of test: SPR (Biacore T200), 37 C, pH 7.4; captured antibody, IL-12 analyte. The procedure:
The affinity of anti-IL-12 antibodies binding to human IL-12 at pH 7.4 were determined at 37 degrees C. using Biacore T200 instrument (Cytiva). Anti-human Fc antibody (Cytiva) was immobilized onto all flow cells (FCs) of a CM4 sensor chip using amine coupling kit (Cytiva). All antibodies and analytes were prepared in ACES pH 7.4 containing 20 mM ACES, 150 mM NaCl, 0.05% Tween 20, 0.005% NaN₃. Each antibody was captured onto the sensor surface by anti-human Fc antibody. Antibody capture levels were aimed at 50 response unit (RU). 5 nM of human IL-12 were injected as analyte, followed by dissociation. Sensor surface was regenerated each cycle with 3M MgCl₂. […] Based on the results in Table 9, it is observed that binding kinetics of anti-IL-12 antibody AbI variants towards IL-12 were not drastically changed compared to control (−/−).
On the technique in general: In SPR one partner is held on a chip, and binding of the other changes the refractive index at the surface.
What is called Kd is a measure of binding affinity in units of concentration. High values mean weaker binding, low ones tighter binding. Take B1: binding was put at a Kd of 0.948 nM. Consider B2, for which the Kd stood at 0.858 nM.

Consider B3, for which the Kd was found to be 1.33 nM. Molecule B4 gave a Kd of 3.61 nM. The molecule B5 gave a Kd of 1.03 nM. For the molecule B6, the equilibrium dissociation constant (Kd) came out at 0.499 nM. In turn, B7 came in with a Kd of 2.74 nM. For B8, the Kd stood at 3.56 nM. B9 registered a Kd of 1.62 nM.

For B10, the affinity, expressed as Kd, was 0.937 nM.

Turning to B11, the Kd was 0.789 nM. In the case of B12, the equilibrium dissociation constant (Kd) turned out to be 1.27 nM.

The molecule B13 had a Kd of 3.27 nM.

For the molecule B14, the Kd was found to be 1.74 nM.

For the molecule B15, the Kd was found to be 3.06 nM. In the case of B16, the Kd is 3.87 nM. B17 showed a Kd of 0.685 nM. The molecule B18 came in with a Kd of 2.1 nM. B19 had a Kd of 1.17 nM. B20 yielded a Kd of 0.571 nM. Under B21 stands 0.793 nM. In turn, B22 had a Kd of 1.3 nM. With B23 the figure was 3.48 nM. Molecule B24 displayed a Kd of 2.23 nM.

B25 displayed a Kd of 1.44 nM.

Molecule B26 gave a Kd of 1.46 nM. In turn, B27 registered a Kd of 1.21 nM. As for B28, the affinity, expressed as Kd, was 2.82 nM. As to B29, the Kd turned out to be 1.49 nM. Under B30 stands 1.48 nM. B31 returned a Kd of 3.68 nM. B32 yielded a Kd of 1.22 nM. Molecule B33 returned a Kd of 0.94 nM. Consider B34, for which the Kd came to 1.25 nM.
